Test results as given in patent publication US20250270289A1, “SEQUENCE-DEFINED POLYMERS WITH ONE OR MORE AZIDES, METHODS OF MAKING, AND METHODS OF USE THEREOF” (Yale University, priority 2021, published 2025).

Tests used:
[1] = biological target: GST-Src SH2 [GST: P08515]; assay: fluorescence polarization competition; competitor FITC-pTyrEEI on GST-Src SH2
[2] = biological target: GST-Src SH2 [GST: P08515]; assay: fluorescence polarization competition, EC50 of pnY peptide against that of pTyr peptide
[3] = biological target: GST-Src SH2 [GST: P08515]; assay: fluorescence polarization, GST-Src SH2 titrated on 10 nM FITC-pTyrEEI, one-site binding model

GST-Src SH2 [GST: P08515], sequence (P08515 whole entry): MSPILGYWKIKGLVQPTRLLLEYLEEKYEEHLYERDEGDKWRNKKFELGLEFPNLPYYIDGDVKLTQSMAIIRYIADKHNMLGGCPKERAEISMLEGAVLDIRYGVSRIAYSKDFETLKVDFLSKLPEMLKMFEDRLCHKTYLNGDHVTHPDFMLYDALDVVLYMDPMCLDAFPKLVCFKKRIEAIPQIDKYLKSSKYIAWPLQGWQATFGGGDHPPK

| Substance | EC50 [1] | Decrease in binding affinity with SH2 (against pTyr) [2] | Kd [3] |
| --- | --- | --- | --- |
| pTyrEEI (peptide) | 740 nM |  |  |
| pnYEEI (peptide) | 12800 nM | 17 fold |  |
| FITC-pTyrEEI (peptide) |  |  | 280 nM |
